One may read the Kd as the free concentration of one partner at which half of the binding sites on the other are occupied at equilibrium, for simple one-to-one binding. Low readings indicate a tighter complex, high ones a looser complex.

In the Immune Epitope Database (IEDB) one finds Kd data, which are given here for ten sequences.

One assay has as its target HLA-B*18:01. Kind of assay: IEDB peptide-MHC binding, purified MHC/direct/fluorescence; filed as Kd, often an IC50 or EC50 that approximates it; ≥ and ≤ were set here for values at or beyond the usual limits of such assays. The note with it: source organism: Escherichia coli O157:H7.
In another assay the target is HLA-A*02:01. The description is as above.
In the next assay the target is HLA-B*44:02. Described as above.
In another assay the target is HLA-B*15:01. The description is as above.
A further assay has as its target HLA-B*58:01. Described as above.
The target in the next assay is HLA-B*40:01. The description is as above.
The target in another assay is HLA-A*69:01. Described as above.
A further assay addresses HLA-A*03:01. The description is as above.
In the next assay the target is HLA-A*24:02. Described as above.
A further assay addresses HLA-A*11:01. Described as above.
For assay [1], the target named is HLA-B*27:05. Described as above.
A further assay concerns the target HLA-B*07:02. Described as above.
For the next assay, the target named is HLA-A*31:01. Described as above.
A further assay deals with HLA-A*01:01. The description is as above.
A further assay deals with HLA-B*46:01. The assay is described as above.
For a further assay, the target named is HLA-A*30:01. The description is as above.
Assay [2] deals with HLA-B*35:01. Kind of assay: IEDB peptide-MHC binding, purified MHC/competitive/fluorescence; filed as Kd, often an IC50 or EC50 that approximates it; ≥ and ≤ were set here for values at or beyond the usual limits of such assays. The note with it: source organism: West Nile virus.
Assay [3] deals with HLA-B*08:01. Briefly: IEDB peptide-MHC binding, purified MHC/direct/fluorescence; filed as Kd, often an IC50 or EC50 that approximates it; ≥ and ≤ were set here for values at or beyond the usual limits of such assays.
Another assay concerns the target HLA-B*15:09. The assay is described as above. Conditions: source organism: Giardia lamblia ATCC 50803.
The target of a further assay is HLA-A*24:03. Described as above.
A further assay deals with HLA-A*23:01. The assay is described as above.
Assay [4] addresses HLA-B*27:05. Briefly: IEDB peptide-MHC binding, purified MHC/competitive/fluorescence; filed as Kd, often an IC50 or EC50 that approximates it; ≥ and ≤ were set here for values at or beyond the usual limits of such assays.
A further assay addresses HLA-A*26:01. Kind of assay: IEDB peptide-MHC binding, purified MHC/direct/fluorescence; filed as Kd, often an IC50 or EC50 that approximates it; ≥ and ≤ were set here for values at or beyond the usual limits of such assays.
Another assay deals with HLA-B*08:02. Described as above. The note with it: source organism: Influenza A virus(A/swine/Shandong/fNY/2003(H9N2)).
Assay [5] has as its target HLA-B*35:01. The assay is described as above.
For assay [6], the target named is HLA-B*08:01. Briefly: IEDB peptide-MHC binding, purified MHC/competitive/fluorescence; filed as Kd, often an IC50 or EC50 that approximates it; ≥ and ≤ were set here for values at or beyond the usual limits of such assays. Conditions: source organism: Yersinia pestis Antiqua.
[7] abbreviates: source organism: Escherichia coli O157:H7.
The mark [8] stands for this setting: source organism: Giardia lamblia ATCC 50803.
[9] abbreviates: source organism: Francisella tularensis subsp. holarctica LVS.
The mark [10] stands for this setting: source organism: Influenza A virus (A/Viet Nam/HN/2004(H5N1)).
[11] abbreviates: source organism: Pseudomonas aeruginosa.
The mark [12] stands for this setting: source organism: Pseudomonas aeruginosa UCBPP-PA14.
Setting [13] is: source organism: dengue virus type 2.

As to LDKGKLWHL, the Kd with HLA-B*18:01, with HLA-A*02:01 (setting [7]), with HLA-B*44:02 (setting [7]), with HLA-B*15:01 (setting [7]), with HLA-B*58:01 (setting [7]) and with HLA-B*40:01 (setting [7]) was no less than 20 µM each time. The dissociation constant Kd in the assay with HLA-A*69:01 (setting [7]), with HLA-A*03:01 (setting [7]), in the assay with HLA-A*24:02 (setting [7]), with HLA-A*11:01 (setting [7]), with HLA-B*27:05 [1] (setting [7]) and in the assay with HLA-B*07:02 (setting [7]) was no less than 20 µM each time. Also, the Kd with HLA-A*31:01 (setting [7]), in the assay with HLA-A*01:01 (setting [7]) and with HLA-B*46:01 (setting [7]) was no less than 20 µM in each case.

Regarding WMILRAISF, the Kd with HLA-A*30:01 (source organism: West Nile virus SPU116/89) is no less than 20 µM; with HLA-B*35:01 [2], 1.28 µM.

With LERIKANIF, the Kd was no less than 20 µM in the assay with HLA-A*02:01 (setting [8]); no less than 20 µM with HLA-B*44:02 (setting [8]); 0.918 µM in the assay with HLA-B*15:01 (setting [8]); no less than 20 µM in the assay with HLA-B*58:01 (setting [8]); 2.43 µM with HLA-B*40:01 (setting [8]); 16.6 µM with HLA-B*08:01 [3] (setting [8]). Moreover, the Kd with HLA-A*69:01 (setting [8]), with HLA-A*03:01 (setting [8]), with HLA-A*24:02 (setting [8]), with HLA-A*11:01 (setting [8]), with HLA-B*27:05 [1] (setting [8]) and with HLA-B*07:02 (setting [8]) was no less than 20 µM each time. In addition, the Kd in the assay with HLA-B*15:09, with HLA-A*31:01 (setting [8]), in the assay with HLA-A*01:01 (setting [8]) and with HLA-B*46:01 (setting [8]) was no less than 20 µM each time.

As to VYYIVVRDF, the Kd is 0.0275 µM in the assay with HLA-A*24:03 (setting [9]), 0.017 µM in the assay with HLA-A*23:01 (setting [9]) and 0.0061 µM in the assay with HLA-A*24:02 (setting [9]).

Regarding RQWRWPLGE, the Kd with HLA-B*27:05 [4] (source organism: Mycobacterium tuberculosis C) worked out at 0.928 µM.

Consider ERNEQGQTL, for which the Kd with HLA-A*02:01 (setting [10]), with HLA-B*44:02 (setting [10]), in the assay with HLA-A*26:01 (source organism: Influenza A virus(A/swine/Shandong/fNY/2003(H9N2))), with HLA-B*08:02, with HLA-B*15:01 (setting [10]) and in the assay with HLA-B*58:01 (setting [10]) was no less than 20 µM throughout. Moreover, the Kd with HLA-B*40:01 (setting [10]), with HLA-B*08:01 [3] (setting [10]), with HLA-A*03:01 (setting [10]), with HLA-A*24:02 (setting [10]), with HLA-A*11:01 (setting [10]) and in the assay with HLA-B*27:05 [1] (setting [10]) was no less than 20 µM throughout. In addition, the Kd in the assay with HLA-B*07:02 (setting [10]), with HLA-A*31:01 (setting [10]), with HLA-A*01:01 (setting [10]) and with HLA-B*46:01 (setting [10]) was no less than 20 µM in each case.

Regarding SPADERAVA, the Kd in the assay with HLA-A*30:01 (setting [11]) is 8.23 µM; with HLA-A*24:03 (setting [12]), no less than 20 µM; with HLA-A*02:01 (setting [12]), no less than 20 µM; in the assay with HLA-A*26:01 (setting [12]) it was no less than 20 µM; with HLA-B*15:01 (setting [11]), no less than 5 µM; with HLA-B*58:01 (setting [12]), no less than 20 µM. The Kd in the assay with HLA-B*35:01 [5] (setting [11]) was 0.124 µM; with HLA-B*40:01 (setting [12]), no less than 20 µM; in the assay with HLA-B*08:01 [3] (setting [12]) it was no less than 20 µM; in the assay with HLA-A*69:01 (setting [12]), no less than 20 µM; in the assay with HLA-A*03:01 (setting [12]), no less than 20 µM; with HLA-A*11:01 (setting [12]) it was no less than 20 µM. Besides, the Kd in the assay with HLA-B*27:05 [1] (setting [12]) is no less than 20 µM; in the assay with HLA-B*07:02 (setting [11]) it was 0.042 µM; in the assay with HLA-A*31:01 (setting [12]), no less than 20 µM; in the assay with HLA-A*01:01 (setting [12]), no less than 20 µM.

As for WYGMEIRPL, the results for the Kd with HLA-A*23:01 (setting [13]) and in the assay with HLA-A*24:02 (setting [13]) were 1.8 µM and 0.455 µM, respectively.

Consider IPRQWHPFA, for which the Kd is 4.66 µM in the assay with HLA-A*30:01 (setting [8]); 10.6 µM in the assay with HLA-A*24:03 (setting [8]); no less than 20 µM with HLA-A*02:01 (setting [8]); no less than 20 µM with HLA-B*44:02 (setting [8]); no less than 20 µM with HLA-A*26:01 (setting [8]); no less than 20 µM with HLA-B*15:01 (setting [8]). Besides, the Kd was no less than 20 µM with HLA-B*58:01 (setting [8]); 1.1 µM in the assay with HLA-B*35:01 [5] (setting [8]); no less than 20 µM with HLA-B*40:01 (setting [8]); 3.8 µM with HLA-B*08:01 [3] (setting [8]); no less than 20 µM in the assay with HLA-A*69:01 (setting [8]); no less than 20 µM in the assay with HLA-A*03:01 (setting [8]). The Kd is no less than 20 µM in the assay with HLA-A*11:01 (setting [8]); no less than 20 µM with HLA-B*27:05 [1] (setting [8]); 0.154 µM with HLA-B*07:02 (setting [8]); no less than 20 µM in the assay with HLA-A*31:01 (setting [8]); no less than 20 µM in the assay with HLA-A*01:01 (setting [8]).

As to LRQKRKAGV, the results for the dissociation constant (Kd) in the assay with HLA-B*08:01 [6] and with HLA-B*27:05 [4] (source organism: Yersinia pestis Antiqua) were no less than 20 µM and 0.0805 µM, respectively.
